Experimental data taken from paper PMC8996237.

What was measured:
[1] = biological target: hCMP-mRBD from a stable CHO suspension cell line (human | HIV-1 JR-FL | SARS-CoV-2) (UniProt P0DTC2); assay: SDS-PAGE
[2] = biological target: hCMP-mRBD from a stable HEK293 suspension cell line (human | HIV-1 JR-FL | SARS-CoV-2) (UniProt P0DTC2); assay: SDS-PAGE

Substance: hCMP-mRBD from a stable CHO suspension cell line (from UniProt P0DTC2 332-532)
- stoichiometry N [1]: 3

Substance: hCMP-mRBD from a stable HEK293 suspension cell line (from UniProt P0DTC2 332-532)
- stoichiometry N [2]: 3
